In the DeepSol protein solubility set:

Experiment: soluble on expression in E. coli; label from the status in PepcDB or PDB records

Row | Sequence | soluble on expression in E. coli
1 | GSADAPRDRHRTIVVGGDRDYPPYEFIDQNGKPAGYNVELTRAIAEVMGMTVEFRLGAWSEMFSALKSGRVDVLQGISWSEKRARQIDFTPPHTIVYHAIFARRDSPPAAGLEDLRGRKVALHRDGIMHEYLAERGYGKDLVLTPTPADALRLLAAGGCDYAVVAMVPGMYIIRENRLTNLVPVARSIAAQRYGYAVRQGDAELLARFSEGLAILRKTGQYEAIRAKWLGVLEP | soluble
2 | GSAMASNAVLYKSNHNVVYSCKYHIVWCPKYRRKVLVGAVEMRLKEIIQEVAKELRVEIIEMQTDKDHIHILADIDPSFGVMKFIKTAKGRSSRILRQEFNHLKTKLPTLWTNSCFISTVGGAPLNVVKQYIENQQNSNRPKQKEKWKSYVDNLQTKAL | soluble
3 | GSCEKENIGIEVTPVNAKFIITPVVIDATTGTDVTQSAEISFSKGNGTYEGTPELASESININAKYKGMTGSASVTIPALKAGQFGAKEVTIILSENFFAQEESSNSQIETTKHSGFKNNTSDYWYYITVTYTKKEGSEVIKNDYEGDDSEIKNIIDAYNKGVREDKVTLNDVQVLAHSRFSVFVDYMKTTSVYQIIEKSPKRDGNPVASFTVDSYNTIVSPKNEQIPGHGHAPSHGHGHGHGDDSNAGGGIIIAD | soluble
4 | GSEVAIKMVVVGNGAVGKSSMIQRYCKGIFTKDYKKTIGVDFLERQIQVNDEDVRLMLWDTAGQEEFDAITKAYYRGAQACVLVFSTTDRESFEAISSWREKVVAEVGDIPTALVQNKIDLLDDSCIKNEEAEGLAKRLKLRFYRTSVKEDLNVSEVFKYLAEKHLQK | soluble
5 | GSFIDIEFPEWFHEGLSRHQAENLLMGKDIGFFIIRASQSSPGDFSISVRHEDDVQHFKVMRDTKGNYFLWTEKFPSLNKLVDYYRTTSISKQKQVFLRD | soluble
6 | GSFTMADLDDIKDGKDFRTDQPQKNIPFTLKGCGALDWGMQSRLSRIFNPKTGKTVMLAFDHGYFQGPTTGLERIDINIAPLFEHADVLMCTRGILRSVVPPATNRPVVLRASGANSILAELSNEAVALSMDDAVRLNSCAVAAQVYIGSEYEHQSIKNIIQLVDAGMKVGMPTMAVTGVGKDMVRDQRYFSLATRIAAEMGAQIIKTYYVEKGFERIVAGCPVPIVIAGGKKLPEREALEMCWQAIDQGASGVDMGRNIFQSDHPVAMMKAVQAVVHHNETADRAYELYLSEKQ | soluble
7 | GSGYREVEYWDQRYQGAADSAPYDWFGDFSSFRALLEPELRPEDRILVLGCGNSALSYELFLGGFPNVTSVDYSSVVVAAMQACYAHVPQLRWETMDVRKLDFPSASFDVVLEKGTLDALLAGERDPWTVSSEGVHTVDQVLSEVSRVLVPGGRFISMTSAAPHFRTRHYAQAYYGWSLRHATYGSGFHFHLYLMHKGGKLSVAQLALGAQILSP | soluble
8 | GSHGMRVIIAGFGRFGQITGRLLLSSGVKMVVLDHDPDHIETLRKFGMKVFYGDATRMDLLESAGAAKAEVLINAIDDPQTNLQLTEMVKEHFPHLQIIARARDVDHYIRLRQAGVEKPERETFEGALKTGRLALESLGLGPYEARERADVFRRFNIQMVEEMAMVENDTKARAAVYKRTSAMLSEIITEDREHLSLIQRHGWQGTEEGKHTGNMADEPETKPSSTSGGLVPRGSSGMILIIYAHPYPHHSHANKRMLEQARTLEGVEIRSLYQLYPDFNIDIAAEQEALSRADLIVWQHPMQWYSIPPLLKLWIDKVFSHGWAYGHGGTALHGKHLLWAVTTGGGESHFEIGAHPGFDVLSQPLQATAIYCGLNWLPPFAMHCTFICDDETLEGQARHYKQRLLEWQEAHHG | soluble
9 | GSHMAARRGALIVLEGVDGAGKSTQSRKLVEALCAAGHRAELLRFPERSTEIGKLLSSYLQKKSDVEDHSVHLLFSANRWEQVPLIKEKLSQGVTLVVDRYAFSGVAFTGAKENFSLDWCKQPDVGLPKPDLVLFLQLQLADAAKRGRARGELERYENGAFQERALRCFHQLMKDTTLNWKMVDASKSIEAVHEDIRVLSEDAIATATEKPLGELWK | soluble
10 | GSHMAEPQRHKILCVCCKCDGRIELTVESSAEDLRTLQQLFLSTLSFVCPWCATNQ | soluble
11 | GSHMASMTGGQQMGRGSMKFSFELAVNTKKEDAWTYYSQVNQWFVWEGDLEQISLEGEFTTGQKGKMKMEDMPELAFTLVEVRENQCFSDLTATPFGNVLFEHEILENPDGTISLRHSVSLTDSDTTEEALAFLKQIFADVPESVGKLKQILETV | soluble
12 | GSHMDSEIQMENLVERKHHRLARSERSGISDRDAKPTASIRDQLHTIVYRYPPTYVLSSEEQDLVWKFRFYLSSHKKALTKFLKCINWKLEDEVTQALWMLANWAPMDVEDALELLSPTFTHPQVRKYAVSRLAQAPDEDLLLYLLQLVQALKYEDPRHIVHLHGCIFPERDVVRSILDDNGSLLDQSSLSDLSATSSGLHASVIPANQRAASVLAAIKSDKSVSPGSAGGSGSGGQGSVALPNPSAPATPGSSSLPCDSNSNALMLAEGISFGSVPANLCTFLIQRACTNATLANYFYWYLSIEVEEVESVRKQDERAHDMYAMVLKMFLKVLENGNFNLRGIFYNLRKQRRFIDELVKLVKLVAKEPGNRNKKTEKFQKLLAEQDMFKVNFTNFEPIPFPLDPEIYITKIVPMRTSLFKSALMPAKLTFVTSIAHHEYAAIFKHGDDLRQDQLILQMITLMDKLLRRENLDLKLTPYKVLATSSKHGFLQYVDSCTVAEVLAREGNIHNFFRKHHPCDNGPYGISAEVMDTYIKSCAGYCVITYLLGVGDRHLDNLLLTTNGKLFHIDFGYILGRDPKPMPPPMKLSKEMVEAMGGISSEHHHEFRKQCYTAYLHLRRHANVMLNLFSLMVDATVPDIALEPDKAVKKVEENLQLGLTDEEAVQHLQSLLDVSITAVMPALVEQIHRFTQYWRK | soluble
13 | GSHMEVNLRMSWWGGNGRHQVTLKALEEFHKQHPNINVKAEYTGWDGHLSRLTTQIAGGTEPDVMQTNWNWLPIFSKDGTGFYNLFSVKEQLDLAQFDPKELQQTTVNGKLNGIPISVTARIFYFNDATWAKAGLEYPKTWDELLAAGKVFKEKLGDQYYPVVLEHQDTLALIRSYMTQKYNIPTIDEANKKFAYSPEQWVEFFTMYKTMVDNHVMPSTKYYASFGKSNMYEMKPWINGEWAGTYMWNSTITKYSDNLTKPAKLVLGPYPMLPGAKDAGLFFKPAQMLSIGKSTKHPQESAMLINFLLNSKEGVEALGLERGVPLSATAVTQLRASGVIKDEDPSVAGLNMALELPHKMTTSPYFDDPQIVSLFGDAIQYIDYGQKTVQETAEYFNKQGDRILKRAMR | soluble
14 | GSHMGGGGGIVLFVDFDYFYAQVEEVLNPSLKGKPVVVCVFSGRFEDSGAVATANYEARKFGVKAGIPIVEAKKILPNAVYLPMRKEVYQQVSSRIMNLLREYSEKIEIASIDEAYLDISDKVRDYREAYNLGLEIKNKILEKEKITVTVGISKNKVFAKIAADMAKPNGIKVIDDEEVKRLIRELDIADVPGIGNITAEKLKKLGINKLVDTLSIEFDKLKGMIGEAKAKYLISLARDEYNEPIRTRVRKSIGRIVTMKRNSRNLEEIKPYLFRAIEESYYKLDKRIPKAIHVVAVTEDLDIVSRGRTFPHGISKETAYSESVKLLQKILEEDERKIRRIGVRFSKFIEAIGLDKFFDT | soluble
15 | GSHMGGIEVLGVKTGVDSFTEVECFLNPQMGNPDEHQKGLSKSLAAEKQFTDDSPDKEQLPCYSVARIPLPNINEDLTCGNILMWEAVTVKTEVIGVTAMLNLHSGTQKTHENGAGKPIQGSNFHFFAVGGEPLELQGVLANYRTKYPAQTVTPKNATVDSQQMNTDHKAVLDKDNAYPVECWVPDPSKNENTRYFGTYTGGENVPPVLHITNTATTVLLDEQGVGPLCKADSLYVSAVDICGLFTNTSGTQQWKGLPRYFKITLRKRSVKN | soluble
16 | GSHMQGQSPIKDQEMKELIRRSQEGDQEARDEIIEKNMRLVWSVVQRFLNRGYEADDLFQIGCIGLLKSVDKFDLSYDVKFSTYAVPMIIGEIQRFLRDDGTVKVSRSLKEMGNKIRKAKDELSKTRGRAPTVTEIADHLGISPEDVVLAQEAVRLPTSIHETVYENDGDPITLLDQIADADEASWFDKIALKKAIEELDERERLIVYLRYYKDQTQSEVASRLGISQVQMSRLEKKILQHIK | soluble
17 | GSHMQSYQISSRLMAQEGQRTSVQTSSLIQSLFDFRLAALRIHQDSTAKNASLINALVSRDSSRLDEFFSSVDELELSNAPDLRFISSHDNILWDDGNASFYGIAQQELNKLIRRVAISGNWHLVQTPSEGKSVHILMRRSSLIEAGTGQVVGYLYVGIVLNDNFALLENIRSGSNSENLVLAVDTTPLVSTLKGNEPYSLDYVVHSAKDAMRDSFIVGQTFLEVESVPTYLCVYSIQTNQNVLTLRDNESVPTYLCVYSIQTNQNVRHQ | soluble
18 | GSHMVKDTLFSTPIAKLGDFIFDENVAEVFPDMIQRSVPGYSNIITAIGMLAERFVTADSNVYDLGCSRGAATLSARRNINQPNVKIIGIDNSQPMVERCRQHIAAYHSEIPVEILCNDIRHVEIKNASMVILNFTLQFLPPEDRIALLTKIYEGLNPNGVLVLSEKFRFEDTKINHLLIDLHHQFKRANGYSELEVSQKRTALENVMRTDSIETHKVRLKNVGFSQVELWFQCFNFGSMIAVK | soluble
19 | GSHSLRYFYTAVSRPGLGEPWFIIVGYVDDMQVLRFSSKEETPRMAPWLEQEEADDWEQQTHIVTIQGQLSERNLMTLVHFYNKSMDDSHTLQWLQDCDVEPDRHLCLWYNQLAYDSEDLPTLSENPSSCTVGNSTVPQISQHLEGHCSDVLQKYLEKGKERLLRSDPPKAHVTRHPRPEGDVTLRCWALGFYPADITLTWQKDGEELTQDVEFVETRPAGDGTFQKWAAVVVPLGKVQSYTCHVDHEGLPEPLTLRWEP | soluble
20 | GSKVEDPKDFPSELLSFLSHAVFSNRTLACFAIYTTKEKAALLYKKIMEKYSVTFISRHNSYNHNILFFLTPHRHRVSAINNYAQKLCTFSFLICKGVNKEYLMYSALTRDPFSVIEESLPGGLKEHDFNPESS | soluble
21 | GSMLHGLKQRLEALHHPGELEGSPQNLHQLLGVSIEQSVPQAQTMLVERHLASLTGDEARLLAALSDGSAFALLTLYSGSRFSRGEVLYRYSNAGRAAGIQCNDFIALYLNHLFAQGLVIASDFTESLRTDYELCEGDSDFRKAQAELQIHLPKLSIRRETLRISPLGRQLWTLMTTPADIEEGH | soluble
22 | GSMPRVVPDQRSKFENEEFFRKLSRECEIKYTGFRDRPHEERQTRFQNACRDGRSEIAFVATGTNLSLQFFPASWQGEQRQTPSREYVDLEREAGKVYLKAPMILNGVCVIWKGWIDLHRLDGMGCLEFDEERAQQEDALAQQ | soluble
23 | GSNAFGRFIDKIYLNSVGWRGIRQRKTHLQMLIKQAVAHLHAKGLAVRVVDIAAGHGRYVLDALANEPAISEILLRDYSEVNVAQGQEMIAQRGMSGRVRFEQGDAFNPEELSALTPRPTLAIVSGLYELFPENEQVKNSLAGLANAIDPGGILIYTGQPWHPQLELIAGVLTSHKDGKPWVMRVRSQGEMDSLVHDAGFDKCTQRIDVWGIFTVSMAVRRDN | not soluble
24 | GSNRSLIVTTILEEPYVLFKKSDKPLYGNDRFEGYCIDLLRELSTILGFTYEIRLVEDGKYGAQDDVNGQWNGMVRELIDHKADLAVAPLAITCVREKVIDFSKPFMTLGISILYRKGTPIDSADDLAKQTKIEYGAVEDGATMTFFKKSKISTYDKMWAFMSSRRQSVLVKSNEEGIQRVLTSDYAFLMESTTIEFVTQRNCNLTQIGGLIDSKGYGVGTPMGSPYRDKITIAICQLQEEGKLHMMKEKWWRGNGCPS | soluble
